± gives the uncertainty stated by the source.
B1: POU domain, class 5, transcription factor 1, residues 134 to 212; numbered along this chain, Q01860 (parent)
chain: EESQDIKALQKELEQFAKLLKQKRITLGYTQADVGLTLGVLFGKVFSQTTICRFEALQLSFKNMCKLRPLLQKWVEEAD

Variants of: B1
Assay: abundance fitness (aPCA) (normalised: wild type 0, dead -1); higher = more abundant; growth selection in yeast, the domain comes from the species named
Details: Homo sapiens

**Q.** Which abundance fitness does the source give for L41E here?
**A.** -0.224 ± 0.21

**Q.** Which abundance fitness does the source give for L41A here?
**A.** -0.695 ± 0.38

**Q.** Which abundance fitness does the source give for L13G here?
**A.** -0.708 ± 0.23

**Q.** With L13A as the variant, how does the abundance fitness read?
**A.** -0.526 ± 0.22

**Q.** With L13I as the variant, how does the abundance fitness read?
**A.** 0.099 ± 0.27

**Q.** For L13M, which abundance fitness is on record?
**A.** 0.021 ± 0.17

**Q.** For L13C, which abundance fitness is on record?
**A.** -0.806 ± 0.31

**Q.** For L13E, which abundance fitness is on record?
**A.** -0.484 ± 0.39

**Q.** For L13H, which abundance fitness is on record?
**A.** -0.176 ± 0.19

**Q.** With L36S as the variant, how does the abundance fitness read?
**A.** 0.105 ± 0.088

**Q.** With L36D as the variant, how does the abundance fitness read?
**A.** 0.112 ± 0.1

**Q.** Which abundance fitness does the source give for L36N here?
**A.** 0.144 ± 0.21

**Q.** With L36V as the variant, how does the abundance fitness read?
**A.** 0.002 ± 0.065

**Q.** With L36I as the variant, how does the abundance fitness read?
**A.** 0.311 ± 0.2

**Q.** For L36Q, which abundance fitness is on record?
**A.** 0.283 ± 0.14

**Q.** For L36W, which abundance fitness is on record?
**A.** 0.249 ± 0.077

**Q.** Which abundance fitness does the source give for L36Y here?
**A.** -0.037 ± 0.32

**Q.** With L36G as the variant, how does the abundance fitness read?
**A.** -0.306 ± 0.085

**Q.** With L36K as the variant, how does the abundance fitness read?
**A.** 0.087 ± 0.15

**Q.** Which abundance fitness does the source give for F16R here?
**A.** -0.394 ± 0.15

**Q.** Which abundance fitness does the source give for L57N here?
**A.** 0.261 ± 0.34

**Q.** For L57C, which abundance fitness is on record?
**A.** 0.035 ± 0.18

**Q.** With L57D as the variant, how does the abundance fitness read?
**A.** -0.509 ± 0.34

**Q.** With L57G as the variant, how does the abundance fitness read?
**A.** 0.094 ± 0.078

**Q.** Which abundance fitness does the source give for L57V here?
**A.** -0.066 ± 0.13

**Q.** For L57E, which abundance fitness is on record?
**A.** -0.694 ± 0.4

**Q.** With C52M as the variant, how does the abundance fitness read?
**A.** 0.451 ± 0.26

**Q.** For C52L, which abundance fitness is on record?
**A.** -0.07 ± 0.31

**Q.** For C52Y, which abundance fitness is on record?
**A.** -0.604 ± 0.4

**Q.** With C52F as the variant, how does the abundance fitness read?
**A.** -0.343 ± 0.29

**Q.** Which abundance fitness does the source give for C52N here?
**A.** 0.175 ± 0.46

**Q.** For V45L, which abundance fitness is on record?
**A.** -0.338 ± 0.12

**Q.** Which abundance fitness does the source give for V45E here?
**A.** 0.16 ± 0.05

**Q.** Which abundance fitness does the source give for V45Q here?
**A.** 0.044 ± 0.091

**Q.** With L38H as the variant, how does the abundance fitness read?
**A.** -0.313 ± 0.38

**Q.** With L38W as the variant, how does the abundance fitness read?
**A.** -0.214 ± 0.26

**Q.** For L38P, which abundance fitness is on record?
**A.** -0.662 ± 0.41

**Q.** With L38A as the variant, how does the abundance fitness read?
**A.** -0.275 ± 0.14

**Q.** With L38S as the variant, how does the abundance fitness read?
**A.** -0.37 ± 0.17

**Q.** With P69V as the variant, how does the abundance fitness read?
**A.** -0.414 ± 0.099

**Q.** With P69K as the variant, how does the abundance fitness read?
**A.** -0.304 ± 0.18

**Q.** Which abundance fitness does the source give for K73F here?
**A.** -0.566 ± 0.34

**Q.** With K73C as the variant, how does the abundance fitness read?
**A.** -0.397 ± 0.17

**Q.** Which abundance fitness does the source give for K73S here?
**A.** -0.659 ± 0.18

**Q.** Which abundance fitness does the source give for K73A here?
**A.** -0.131 ± 0.092

**Q.** For K73H, which abundance fitness is on record?
**A.** -0.349 ± 0.33

**Q.** Which abundance fitness does the source give for K73I here?
**A.** -0.448 ± 0.34

**Q.** With T30R as the variant, how does the abundance fitness read?
**A.** -0.249 ± 0.078

**Q.** With T30Q as the variant, how does the abundance fitness read?
**A.** -0.664 ± 0.3

**Q.** Which abundance fitness does the source give for T30V here?
**A.** -0.392 ± 0.12

**Q.** With L71M as the variant, how does the abundance fitness read?
**A.** -0.251 ± 0.13

**Q.** For L71Q, which abundance fitness is on record?
**A.** -0.658 ± 0.27

**Q.** With L71R as the variant, how does the abundance fitness read?
**A.** -0.509 ± 0.11

**Q.** For L71A, which abundance fitness is on record?
**A.** -0.51 ± 0.13

**Q.** Which abundance fitness does the source give for L71W here?
**A.** -0.323 ± 0.15

**Q.** For L71C, which abundance fitness is on record?
**A.** -0.474 ± 0.2

**Q.** With L71P as the variant, how does the abundance fitness read?
**A.** -0.07 ± 0.17

**Q.** For L71V, which abundance fitness is on record?
**A.** -0.728 ± 0.17

**Q.** For L71H, which abundance fitness is on record?
**A.** -0.207 ± 0.24

**Q.** With L27G as the variant, how does the abundance fitness read?
**A.** -0.387 ± 0.1

**Q.** For L27P, which abundance fitness is on record?
**A.** -0.274 ± 0.2

**Q.** Which abundance fitness does the source give for L27E here?
**A.** -0.842 ± 0.28

**Q.** With L27W as the variant, how does the abundance fitness read?
**A.** -0.185 ± 0.11

**Q.** For L27Q, which abundance fitness is on record?
**A.** -0.602 ± 0.24

**Q.** Which abundance fitness does the source give for L27Y here?
**A.** -0.358 ± 0.4

**Q.** Which abundance fitness does the source give for N63M here?
**A.** -0.088 ± 0.33

**Q.** Which abundance fitness does the source give for N63Y here?
**A.** -0.387 ± 0.5

**Q.** For N63E, which abundance fitness is on record?
**A.** 0.126 ± 0.14

**Q.** For N63S, which abundance fitness is on record?
**A.** 0.299 ± 0.11

**Q.** For N63L, which abundance fitness is on record?
**A.** -0.336 ± 0.2

**Q.** With N63R as the variant, how does the abundance fitness read?
**A.** 0.037 ± 0.095

**Q.** For K66V, which abundance fitness is on record?
**A.** -0.365 ± 0.15

**Q.** With K66R as the variant, how does the abundance fitness read?
**A.** -0.01 ± 0.093

**Q.** Which abundance fitness does the source give for Q31V here?
**A.** -0.679 ± 0.21

**Q.** Which abundance fitness does the source give for Q31Y here?
**A.** 0.323 ± 0.27

**Q.** Which abundance fitness does the source give for Q31R here?
**A.** -0.469 ± 0.14

**Q.** With Q31P as the variant, how does the abundance fitness read?
**A.** 0.133 ± 0.14

**Q.** With Q31G as the variant, how does the abundance fitness read?
**A.** -0.402 ± 0.16

**Q.** For Q31F, which abundance fitness is on record?
**A.** -0.009 ± 0.29

**Q.** With F42R as the variant, how does the abundance fitness read?
**A.** -0.627 ± 0.076

**Q.** For F42Y, which abundance fitness is on record?
**A.** -0.028 ± 0.27

**Q.** With F42K as the variant, how does the abundance fitness read?
**A.** -0.262 ± 0.098

**Q.** With F42S as the variant, how does the abundance fitness read?
**A.** -0.055 ± 0.075

**Q.** Which abundance fitness does the source give for F42P here?
**A.** -0.654 ± 0.15

Source: the Human Domainome abundance scans (Beltran et al. 2025)
